The data set in a line: protease stability score; higher = more stable; yeast display proteolysis, trypsin and chymotrypsin.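 Further: log10 excess protease needed over predicted unfolded state with 0 meaning unfolded.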
In turn, “DERVIQEIRKMFNTNNFDSIAKNADKDATASIGNKHVHGKDNVKKLLDQFSRQIDHIQIDSVHVQGEKFVAQMKVNINGRERTAEMRMEVHNGKIQRISITFTDPSAQQTIKERME” gave a protease stability score of 0.942. The same measure for “DEEFLKRLVKILRTGDPDKLVNNFDKNARLEYGDKTVEGKNRIKKFMKDLHDRVDHFDIESVTLEPNHLDFTMKAQINGRDVKVRVRVEVHNGKIKHATYKYTNEDQERNMKHVKS”: 0.561. Then “DEQKIKELLYKAAEAYINGNDELVRKLLKDDGKLEAGDYEYRGVDQVVKVAQDFKKYGVELEIKNYKYDGDRLDVEVELHLGGTTWKFTVTVQADGGKVDKVQFHFSEEARKRIQDG”, with 0.447; and “DEEDVEKMVRLVRDGDWEQFARNADENVRIQIGNREVHGRNEAHKAADKLTKHIDHFRIDRYDRNGDKLDVLFRMTVNGQEVKARMYVEVHNGRVTRMEIRATSEEILKRIDEVLS”, with 1.37. Then “DQEQAEETQKKWQEVVEKGDEKKAKKIYDPNGQWQDADETHQGYEIVIKMMRRAQKKGIEFQVRRAEVEGDRLQVDYDMRLGDKTVTFTVQMEVQGGHVKVVRVEVTEEAKKLLKEG”, with 1.11; and “DEETNQELLERLIDLISHGDEDEFNRQADEEAKAQYGDTRYHGREEVVKAIKTLADRVDHWHIESYHVHGNEMVIDMRWTVNGRTRRANIVMEAENGRIKYVQMDDQ”, with 0.765. Consider “DEEKVHKQAHDYRTALQRGDPDRAAHLIDKHARIRVGDHTVNGRTQFKKMMEQLHTRIDKIEFKDVDVQGNKVNINIVVEVNGRRVEVTVDLDVQGDRVKQAVLTFRDPDNAKQMLG”, for which the protease stability score is -0.111. Then “DEDAVKAYERLLTAWNHGDPDQAKHQVDPNVRVQVGDKQIHGREELARQIERRRREANIHNQLEDYRDNGEEIQLHVEVTEDHNGNPDTKTYTAYAQFTNGKMQELTINDHG”, with -0.219; and “DEESLDHLRKVLEKNDPDQLTELMDPDATAVIGNTEVHGREKVVTIMRRIYERADSIHIDRFSHQGDRLVADMQVNINGKKMRYEYVIRVHNGRIKYVKFHVTSEDVERDLTRAVS”, with 1.67; and “DEEELQRWAERIVEAFTHGDPQRLSKNVDKNVKVTVGEHEYHGKEELNKILEEIRRQADRIHYKSVDVQGDRANFDMVMNVNGKNVKFTLIVRFENGHAKHLEFDPRMWRVVQR”, with 1.53.

On to “DERDQKHLAELIAKALETGDFKLAQKNVDENVRVKVGDETLHGKDNMQKWAEENHRRVDHLQLNDIKIHNGRVVINMRAVVNGKDFRLDIKIQFDNGKIHVVSIDPRVERHIKS”, for which the protease stability score was 0.733. Then “DEKEKAEDFMRKMQKIAKTNNPTELDDQFDEDAKLVVGDKRYHGRKQMQKHYKELRKRVDHFRLEVKRIDVSGDKVRFDAKYEADVNGRRETVDMRFVVRRVGDKDRAENAQWK”, with 0.285. “DERFRRLVHSFIQALHTNNPEEIKELFDPNARMTIGDKQVHGQEDISRLIDRERKEMRLEIKTFSVEDKGDTADVKMKAVWDVNGKPNRHSYDLNFVDHNGKIRSLHARMDSQYLREVKS” yielded a protease stability score of -0.074. Then “DDKRKADEFAKELVKAVQTGDSDNIRKLLDPNARINVGEKHYQGKDSMAKIMVRIAEDVDHISARVISVRDHNGSAVIHIEVQNNHNGRNSRTRVILHLTDHNGRIKLRERREG”, with 0.749; and “DEEDVDRAARKFAEGNPDDVLKLADPNAELHVGDQTVHGKEDLERVMELDKRRIDHIHVNSMSVQGDNVKVLFKVVVNGRNIEFTLTANAHNGSIQFVMLNFTDERDEDKRRKALS”, with 0.28; and “DEEVAREMMTKWMRAVQKGDPDTVDKIYNPNGKWKAIDTERQGSEHIKKVMQRVKKQGVEFQVRKAKVEGNQAVVIYDFKLANKTVTFTVELRVQGGRVKEVRVEVDEEAKKDMKKG”, with 1.14.

As for “DEEIEDMIRKLIHAIRSGDEKKIKDNFDKDVDVDVGDKTLHGREHLTKRIAETRRQLKVRITSLHVHVRGEQVRVQVTMERTVNGRPQRHHNVFELQVHNGRVKRVSVKSDG”, the protease stability score worked out at 1.08. Then “DDEQDRDFVQTMREAIDRGDFKKIARMADKDVKVVIGDKNVTGRETLTHLLKDFVDKFDHIRVRHIDAHNGSVDIDMTADHNGDKRQYRIRVNVSNGQVKEFQLKQT”, with 0.453; and “DETLFELIQRLIEAYKHGNPDELKKQADPNARVKVGDKELHGMEEIAKELVTQRKQQRLSYLSINNDDDPNHARVRFNVEVERNGQPRTKRFELRAETHNGRLISMEVQSRR”, with 0.232. “DEESQKQMMKEMSDVWKHNDPDEAQKLADKDVKIRYGDREYHGREDFVSAMREFSKQADSITVKHMTVQGDKIVLDIIIQYDGQHREIVVIVHVHNGRIQELQIQDG”: the protease stability score is 0.637. Then “DEELADKMRKWWQNVHQGNHDHIREMVDPNVKFQVGNKQYHGRETMSSLVVELKREITFRVDRMSASVHNGRLHVRLDIKYEVNGQPDRENLRIEANIHNGKIKSLSVQMDNEKLKKLHK”, with 1.03; and “DEEAVKRANEMVEAWEHGDESRFMKLVDPNAQVRVGDKEVHGKEDMNRSIQEESRQLRVHRRVESVESQGNEVKIDLVFTQNVNGQPIQQRVDVVITFRNGKAVDIQLDIPEDQQQQHRR”, with -0.131. “DEHLQTLVTDLIRAEQNNDEERLKRLMDPNVRAQYGDQTVSGREEIVQKIIHKNREIHFSQEIKSISAHNGRIHVTVEFTEEHNGEPRRDKMHQTIIAHGDQIKEVRVKSDG” returned a protease stability score of -0.28. The same measure for “DEERDLDIAVEAAKNLLTGNEERFSKMAPPDVRIEYGDKTVHGREQANTAVKEFRDRVDHIEIKRIEKDGNKAHIEFIANVNGHRFTVTMVVDVSNGRVNQVDIRARNKEDQEKMKG”: 0.06.

As for “DEENRKIAKKLVEAMHTNDEETLEKMFDPNVRFDVGDREVHGKEQWKREQHKKNREARFEIQRYTISYEGDKAVVRIHQVEDHNGQPREDTYVMHVEVHNGKVKRVVQRKDS”, the protease stability score is -0.129. As for “DEEELKDWLRNAREIWETGNPDQMEELADPDASIQVGDRTYHGSDEYKKWVEDMHRHADHIEVKEVSIRGDKVHIQVVINVNGRNFTFEFELRVRNGRVKQFNFDPDRMEEIKK”, the protease stability score came out at 0.574.

Consider “DEDVQDQYRKILEAEKKNNPDHLNELMDPNVKFNVGDHTIHGREQRKEKQDELVKESRYDIKVDRVSVKGNKFVAKFKVTEEHNGRPHTTVLVIVMTVENGHVKRLQVKRDK”, for which the protease stability score was -0.001. The same measure for “DEHRQLEEVLSQIQDALRTNNPDDWADQADENAEFNIGDKSFSGREKVREYAETHMKDADHVSMDVRRVDVRNGRARVSARITAKVNGETKDVTYDMVFKFHNGQAKLVQMNES”: 0.996. The same measure for “DRERQKKNLKDFVDALTKGDPDQVVKQFDKDARVRVGDKQVEGRDQIREFAKEWSKHVDRFRITEMRVHNGRLDIQAEQHHNGRKRRIQVEVNWHNGQIKNMQWTHG”: 1.4; for “DEKALRVAEEAIKAVQTGDPKKFATMADENARVRIGDKEVKGRENQVQLMKDWKHHMRWEQDVKSVTANGDKVEVKFEQVSETNGKPDHDTWNVHFTAQNGEVKSMTMTSNK”: -0.504; for “SEEQVEKLVKVMFRAVQNGNKDEVKKYGKSSGQFVFGSDRVEGVDQYVKKLKEVHDRGVQFEFKKFQVKDDTVTMETEVHYGNKTFRVTAQAKYDGGTLDRARVEISEEAKEAYKQG”: 0.368.

“DEQEQAKDFARQLQKVFRYGDEERARQLADKHVKVNVGDKIFHGREKVQKWIREIKNRSDKYKIDIKSIRVKNGRITIEFKAQEEFNGERRRVTVNAKAKLDNGEIRLTSVDQK” showed a protease stability score of 0.128. The same measure for “DEEKEATKQVSEWIENMKSGDEDRLRELADKNAKVRYGDEEVHGMDQAAERWRNQRQKYDSLEVEVRDLKNHNGQVVVDQVERFNHNGKTDQRRVIITMERRPNHFVVQEVVQP”: -0.331; for “DDKKAQDFARKFADNLRTGNERQWEKMFDENVRIKYGDKTLHGREVARKEARTFHEQVDHMEVRSITAQGNQLVIMFEVKHNGRTDRMVWRAKVENGKIQHQTVTSQ”: -0.084; for “DEDAARSAEHLQRHNDFDEFARRADENVRLRVGDFRFQGREQVIRFMKRFTDRFDHVQFRRMDFHGNRMQAEFVAEVNGKTVKMKESFQIDNGRVHSVTQEATSEEDQEELKRLID”: 0.254. Then “DEDKLTDKAHQIIRALETGDPDQIRNLAPPNVRFDYGDKRYHGREKAEERAKRERENIDHMEIKDFDVQGNKIQIRAVVEHNGRSREFVVTFEQNNGTLRFARMQSK”, with -0.342.

With “DERNNEFAKHFIEVLNQGDWKRLNEMLDPNVKVEIGDTTIHGRENFSRNVKQDLDHLRQEFHITSMDASGNKVEVRADVINRDNGKPREFKMKMEIRFHNGRVKEIKLDHDG”, the protease stability score came to 1.53. The same measure for “DEEAQKHIQQMFHAIDHGNPEKVKELADPNVNIEVGDKRYHGMDTWVREIEKTKKEMRVSVEHVKVDDRNGRAKIDVIMNNEVNGKPVRDRKTATADVHNGKIKSLQYQFSEDQKKKDEG”: -0.472; for “DHDALERFQEFLENLKSGNPHDLHNMLDKNASLQVGDKTVTGRDQIVDHWRRQREEWEVTYRSVDLKVSGDTVKADFDFQVDINGQPNRVSRQAHVKISNGKLKTLQYRVSEDVKRNIEG”: -0.254; for “DEEHVRRQAKQVNDILTTGDENKMLEMAPPDAKLEYGDRHVTGREHIRRMVHEQKKQIDDFKIDTYSVSGNEVRVRFVARVNGQEADFEITIVFKNGRIHEIKVDPDALQQMRK”: 0.256. Then “REEDVEKVIRTLLQAVHEGNPDKIRKYLKPDVEVQYADQKFKGPDEIMKLMRRMVRKGYRVQIKEQHVEGDTATTRADYQMGDKQVTVEVTAEAENGKLKHAEIKMSPQFEEIVKKG”, with 1.49; and “DEHAERIFRKWMTIYKKGDPKKVKELLDPNARVRIGDKRIRGRETAAEQQSTRADEMRNDVKVKHLEVNGDDLVVRIKFTSEENGNPKDQEAKFDWNIHNGKIRSQTQDIKG”, with -0.017. Then “DTERNAKEAVTRLKKVFTHNDPDKIASMFDENAHIEVGDKRYHGHEEVKRWADDMRNQYDHWDADVRSIDVHGDKVHVEAVITAERNGKTLERTFVVIFDRDNGQLRIHELRDQ”, with 0.926; and “DEELLHRIRDFLRAVRHGDSDHLRQLMDEDVKMTVGDHEIHGRERILDKIKQTRDEQRIHIQVRSMHADGDKATVHADIENEHNGQPQTAKLRMTVQVENGRIKQIDVEIKQ”, with 0.904; and “DERDDRQLNHLFRDLVHGDPDEADKLVDPNVQFTYGDRTYSGNDELQRLIDNWKKELHVTVKDIRVENQGDKVVIHIEMEYTHNGQPTSYKMSVRATAHNGKVKHMNMTSQS”, with 0.103.

As for “DDEDQRDQVRRLSKQMQTGDPNKVRQLLDPNAEVHIGDTTVHGREEVMRSQDKLRKRIDHFEMQDMKVDGESVVAHAVFRVDGKDITLEVRARYTNGRVKKMSFNPEAITRIRS”, the protease stability score amounted to 0.127. Then “DEESRAQSFMSKFNDNLRRGDPEKLKTYMDPNVKVQVGEKRLNGREQAARFWVEIARHVDHISVEFKSLKVTGDKIKAKAIVVLDVNGQKRRQDVVLYAQIQGDTIRLKKVDAP”, with 1.07.

The values are drawn from the NTF2 design screens of Basanta et al. (2020).
